Test results reported in the supplement of paper PMC9112550, “Optimization of the antimicrobial peptide Bac7 by deep mutational scanning” (BMC Biology, 2022).

Tested on: Escherichia coli TOP10
Test: shrunken log2 fold change of peptide-encoding DNA abundance (4.5 h post-induction vs induction); higher = less antimicrobial activity (less host growth inhibition)
Settings: time post-induction: 4.5 h; library: site-saturation at positions 5, 18, 19, 20
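Also: peptides expressed intracellularly from a pBAD plasmid library in pooled LB shake-flask culture, induced with 0.3% L-arabinose, DNA abundance read by NGS, three biological replicates, DESeq2 with apeglm shrinkage.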

| Sequence | shrunken log2 fold change |
| --- | --- |
| RRIRTRPPRLPRPRPRPPVMPRP | -0.113 |
| RRIRLRPPRLPRPRPRPCCFPRP | -0.0513 |
| RRIRGRPPRLPRPRPRPKDLPRP | -0.0839 |
| RRIRYRPPRLPRPRPRPYGTPRP | -0.0957 |
| RRIRIRPPRLPRPRPRPPEAPRP | 0.276 |
| RRIRDRPPRLPRPRPRPNGYPRP | -0.36 |
| RRIRCRPPRLPRPRPRPHPHPRP | -0.0639 |
| RRIRERPPRLPRPRPRPKLGPRP | 0.12 |
| RRIRTRPPRLPRPRPRPSDFPRP | -0.704 |
| RRIRFRPPRLPRPRPRPGVQPRP | 0.119 |
| RRIRMRPPRLPRPRPRPHKFPRP | 0.0123 |
| RRIRDRPPRLPRPRPRPKVPPRP | -0.00145 |
| RRIRKRPPRLPRPRPRPPDGPRP | 0.992 |
| RRIRPRPPRLPRPRPRPIVYPRP | 0.175 |
| RRIRCRPPRLPRPRPRPAVYPRP | 0.0903 |
| RRIRSRPPRLPRPRPRPFTFPRP | -0.189 |
| RRIRYRPPRLPRPRPRPTQGPRP | 0.0351 |
| RRIRDRPPRLPRPRPRPLTHPRP | 0.179 |
| RRIRDRPPRLPRPRPRPMKPPRP | 0.0123 |
| RRIRERPPRLPRPRPRPGWMPRP | 0.144 |
| RRIRPRPPRLPRPRPRPWPHPRP | 0.0318 |
| RRIRYRPPRLPRPRPRPVGDPRP | -0.0659 |

| Sequence | shrunken log2 fold change |
| --- | --- |
| RRIRCRPPRLPRPRPRPENHPRP | -0.415 |
| RRIRWRPPRLPRPRPRPCGGPRP | 0.123 |
| RRIRARPPRLPRPRPRPRQEPRP | 0.503 |
| RRIRYRPPRLPRPRPRPSGGPRP | -0.519 |
| RRIRSRPPRLPRPRPRPYCIPRP | -0.26 |
| RRIRRRPPRLPRPRPRPKFHPRP | 0.323 |
| RRIRDRPPRLPRPRPRPSSPPRP | -0.341 |
| RRIRIRPPRLPRPRPRPGCLPRP | 1.56 |
| RRIRERPPRLPRPRPRPYSCPRP | 0.0107 |
| RRIRMRPPRLPRPRPRPYVAPRP | -0.445 |
| RRIRGRPPRLPRPRPRPLEHPRP | 0.594 |
| RRIRFRPPRLPRPRPRPSCAPRP | -0.22 |
| RRIRIRPPRLPRPRPRPPPYPRP | -0.177 |
| RRIRHRPPRLPRPRPRPRDPPRP | -0.153 |
| RRIRKRPPRLPRPRPRPMIDPRP | 0.21 |
| RRIRWRPPRLPRPRPRPYEWPRP | 0.0229 |
| RRIRLRPPRLPRPRPRPNMDPRP | 0.0212 |
| RRIRFRPPRLPRPRPRPVMCPRP | -0.263 |
| RRIRLRPPRLPRPRPRPIGYPRP | -0.253 |
| RRIRMRPPRLPRPRPRPNWDPRP | 0.0485 |
| RRIRIRPPRLPRPRPRPIHIPRP | -0.149 |
| RRIRMRPPRLPRPRPRPGEYPRP | 0.434 |

| Sequence | shrunken log2 fold change |
| --- | --- |
| RRIRFRPPRLPRPRPRPGCSPRP | -0.0796 |
| RRIRLRPPRLPRPRPRPCRWPRP | 0.252 |
| RRIRFRPPRLPRPRPRPFCAPRP | -0.102 |
| RRIRNRPPRLPRPRPRPINLPRP | -0.176 |
| RRIRKRPPRLPRPRPRPNCNPRP | 0.00173 |
| RRIRARPPRLPRPRPRPQHTPRP | 0.156 |
| RRIRIRPPRLPRPRPRPKWVPRP | -0.098 |
| RRIRQRPPRLPRPRPRPGKWPRP | 0.362 |
| RRIRTRPPRLPRPRPRPYQHPRP | -0.376 |
| RRIRSRPPRLPRPRPRPHQEPRP | -0.0261 |
| RRIRCRPPRLPRPRPRPQAAPRP | 0.225 |
| RRIRGRPPRLPRPRPRPEIGPRP | 1.92 |
| RRIRSRPPRLPRPRPRPTFLPRP | -0.0423 |
| RRIRHRPPRLPRPRPRPNKTPRP | -0.0741 |
| RRIRDRPPRLPRPRPRPKDFPRP | -0.00804 |
| RRIRPRPPRLPRPRPRPKGCPRP | 0.394 |
| RRIRSRPPRLPRPRPRPEQWPRP | 0.172 |
| RRIRFRPPRLPRPRPRPSSMPRP | -0.965 |
| RRIRARPPRLPRPRPRPFVSPRP | -0.00645 |
| RRIRERPPRLPRPRPRPRVSPRP | 0.0184 |
| RRIRKRPPRLPRPRPRPVEIPRP | 0.0372 |
| RRIRCRPPRLPRPRPRPNQHPRP | -0.337 |

| Sequence | shrunken log2 fold change |
| --- | --- |
| RRIRGRPPRLPRPRPRPGYGPRP | -0.0363 |
| RRIRPRPPRLPRPRPRPIGMPRP | -0.232 |
| RRIRRRPPRLPRPRPRPMFRPRP | -0.0342 |
| RRIRKRPPRLPRPRPRPMFAPRP | 0.485 |
| RRIRKRPPRLPRPRPRPTCKPRP | 0.347 |
| RRIRLRPPRLPRPRPRPDWFPRP | -0.173 |
| RRIRPRPPRLPRPRPRPDVRPRP | 1.79 |
| RRIRGRPPRLPRPRPRPLESPRP | 1.12 |
| RRIRMRPPRLPRPRPRPDNGPRP | -0.0901 |
| RRIRCRPPRLPRPRPRPLKIPRP | -0.511 |
| RRIRIRPPRLPRPRPRPCQEPRP | -0.119 |
| RRIRERPPRLPRPRPRPAFQPRP | 0.0677 |
| RRIRVRPPRLPRPRPRPASVPRP | 0.0346 |
| RRIRWRPPRLPRPRPRPISIPRP | -0.234 |
| RRIRPRPPRLPRPRPRPAETPRP | -0.0458 |
| RRIRVRPPRLPRPRPRPKKCPRP | 0.0567 |
| RRIRPRPPRLPRPRPRPGLFPRP | 0.162 |
| RRIRVRPPRLPRPRPRPHTTPRP | -0.26 |
| RRIRSRPPRLPRPRPRPPTVPRP | 0.153 |
| RRIRYRPPRLPRPRPRPKHVPRP | -0.4 |
| RRIRYRPPRLPRPRPRPISEPRP | -0.0398 |
| RRIRQRPPRLPRPRPRPMEQPRP | -0.074 |

| Sequence | shrunken log2 fold change |
| --- | --- |
| RRIRCRPPRLPRPRPRPATSPRP | 0.0157 |
| RRIRRRPPRLPRPRPRPPLCPRP | 0.971 |
| RRIRMRPPRLPRPRPRPEPFPRP | 0.427 |
| RRIRPRPPRLPRPRPRPRFNPRP | -0.181 |
| RRIRIRPPRLPRPRPRPQQKPRP | 0.0242 |
| RRIRKRPPRLPRPRPRPFAWPRP | 0.462 |
| RRIRLRPPRLPRPRPRPCAPPRP | 0.00325 |
| RRIRRRPPRLPRPRPRPYYGPRP | -0.132 |
| RRIRYRPPRLPRPRPRPNSTPRP | -1.01 |
| RRIRTRPPRLPRPRPRPFLVPRP | -0.404 |
| RRIRGRPPRLPRPRPRPARMPRP | 0.613 |
| RRIRQRPPRLPRPRPRPRIQPRP | -0.0402 |
| RRIRERPPRLPRPRPRPMCTPRP | 0.107 |
| RRIRYRPPRLPRPRPRPWQAPRP | -0.0293 |
| RRIRLRPPRLPRPRPRPEYLPRP | -0.0639 |
| RRIRDRPPRLPRPRPRPHSYPRP | -0.0739 |
| RRIRHRPPRLPRPRPRPVPTPRP | 0.144 |
| RRIRVRPPRLPRPRPRPIDEPRP | 0.0357 |
| RRIRARPPRLPRPRPRPACDPRP | 0.851 |
| RRIRFRPPRLPRPRPRPQPWPRP | 0.334 |
| RRIRQRPPRLPRPRPRPGIIPRP | 0.0277 |
